Source: patent US20060281673A1, “Novel peptide inhibitor of hiv fusion that disrupts the internal trimeric coiled-coil of gp41” (priority 2003, published 2006)

Columns and labels:
N36^Mut(e,g) = assay: cell-based or functional assay
[1] = biological target: pre-hairpin intermediate of gp41 (HIV-1 Env on effector cells) (HIV-1), P03377; assay: cell-based or functional assay

B1: N36^Mut(e,g) (peptide)
peptide: SGIDQEQNNLTRLIEAQIHELQLTQWKIKQLLARIL
modifications: not checked
For B1, the α: factor relating the homotrimerization association constant of L to Kref^trimer, fitted to the fusion inhibition data at λMT=1.5×10^-4 M (N36^Mut(e,g)) was 0.34, the α: factor relating the homotrimerization association constant of L to Kref^trimer, fitted to the fusion inhibition data at λMT=1.5×10^-5 M (N36^Mut(e,g)) was 1.07 and the IC50, inhibition of HIV Env-mediated cell fusion (vaccinia virus-based reporter gene assay) [1] was 308 nM. The fold activity in inhibiting fusion relative to N36 [1] was 50 fold, the β: factor relating the heterotrimerization association constant of M and L to Kref^trimer, fitted to the fusion inhibition data at λMT=1.5×10^-4 M [1] was 5.76 and the β: factor relating the heterotrimerization association constant of M and L to Kref^trimer, fitted to the fusion inhibition data at λMT=1.5×10^-5 M [1] was 2.97.

B2: N36^Mut(a,d) (peptide)
peptide: SGIVQQLNNQLRAEEANQHLEQLSVWGSKQNQARRL
modifications: not checked
Binder B2 has an inhibition of HIV Env-mediated cell fusion (vaccinia virus-based reporter gene assay) [1] of over 0.1 mM.
